Data published in IntAct's records for PubMed 25770211.

B1: 5-hydroxytryptamine receptor 2C (Homo sapiens), P28335 (parent)
chain: MVNLRNAVHSFLVHLIGLLVWQSDISVSPVAAIVTDIFNTSDGGRFKFPDGVQNWPALSIVIIIIMTIGGNILVIMAVSMEKKLHNATNYFLMSLAIADMLVGLLVMPLSLLAILYDYVWPLPRYLCPVWISLDVLFSTASIMHLCAISLDRYVAIRNPIEHSRFNSRTKAIMKIAIVWAISIGVSVPIPVIGLRDEEKVFVNNTTCVLNDPNFVLIGSFVAFFIPLTIMVITYCLTIYVLRRQALMLLHGHTEEPPGLSLDFLKCCKRNTAEEENSANPNQDQNARRRKKKERRPRGTMQAINNERKASKVLGIVFFVFLIMWCPFFITNILSVLCEKSCNQKLMEKLLNVFVWIGYVCSGINPLVYTLFNKIYRRAFSNYLRCNYKVEKKPPVRQIPRVAATALSGRELNVNIYRHTNEPVIEKASDNEPGIEMQVENLELPVNPSSVVSERISSV
partner: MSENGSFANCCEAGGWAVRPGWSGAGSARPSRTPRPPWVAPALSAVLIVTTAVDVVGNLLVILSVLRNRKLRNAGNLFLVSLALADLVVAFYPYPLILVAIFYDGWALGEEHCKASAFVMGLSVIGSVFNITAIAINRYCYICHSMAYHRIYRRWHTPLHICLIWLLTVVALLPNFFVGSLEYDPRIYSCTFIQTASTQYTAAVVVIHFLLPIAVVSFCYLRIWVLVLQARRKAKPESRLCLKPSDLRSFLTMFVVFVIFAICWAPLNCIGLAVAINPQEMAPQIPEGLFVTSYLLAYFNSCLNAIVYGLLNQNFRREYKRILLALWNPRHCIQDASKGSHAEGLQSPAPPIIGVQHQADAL

Variants of: B1
Conditions: with mtr1b_human MTNR1B

| Variant | effect of a mutation on the interaction |
| --- | --- |
| MVNLRNAVHSFLVHLIGLLVWQSDISVSPVAAIVTDIFNTSDGGRFKFPDGVQNWPALSIVIIIIMTIGGNILVIMAVSMEKKLHNATNYFLMSLAIADMLVGLLVMPLSLLAILYDYVWPLPRYLCPVWISLDVLFNTASIMHLCAISLDRYVAIRNPIEHSRFNSRTKAIMKIAIVWAISIGVSVPIPVIGLRDEEKVFVNNTTCVLNDPNFVLIGSFVAFFIPLTIMVITYCLTIYVLRRQALMLLHGHTEEPPGLSLDFLKCCKRNTAEEENSANPNQDQNARRRKKKERRPRGTMQAINNERKASKVLGIVFFVFLIMWCPFFITNILSVLCEKSCNQKLMEKLLNVFVWIGYVCSGINPLVYTLFNKIYRRAFSNYLRCNYKVEKKPPVRQIPRVAATALSGRELNVNIYRHTNEPVIEKASDNEPGIEMQVENLELPVNPSSVVSERISSV [S138N] | with no effect |
